Assay results reported in publication PMC2731490 (Nature, 2009).

Key:
[1] = target: T1, pol V Mut (UmuD′2C–RecA), wild-type RecA (Escherichia coli, UniProt P0A7G6); test: hairpin primer/template extension, […]-labelled DNA; type: biochemical; settings: nucleotide added after activation; RecA* absent; hydrolysis not needed
T1 sequence (P0A7G6 2-353): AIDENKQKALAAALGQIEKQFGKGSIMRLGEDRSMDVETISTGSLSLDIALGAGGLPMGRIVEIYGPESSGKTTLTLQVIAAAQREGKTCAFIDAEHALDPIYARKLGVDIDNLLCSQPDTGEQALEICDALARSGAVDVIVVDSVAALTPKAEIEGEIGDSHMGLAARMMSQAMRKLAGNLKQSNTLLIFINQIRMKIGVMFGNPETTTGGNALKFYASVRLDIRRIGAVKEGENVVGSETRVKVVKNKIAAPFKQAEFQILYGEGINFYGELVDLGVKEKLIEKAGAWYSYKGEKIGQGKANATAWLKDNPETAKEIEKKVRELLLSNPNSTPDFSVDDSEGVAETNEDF
T1 sequence (P04152 1-422 partner): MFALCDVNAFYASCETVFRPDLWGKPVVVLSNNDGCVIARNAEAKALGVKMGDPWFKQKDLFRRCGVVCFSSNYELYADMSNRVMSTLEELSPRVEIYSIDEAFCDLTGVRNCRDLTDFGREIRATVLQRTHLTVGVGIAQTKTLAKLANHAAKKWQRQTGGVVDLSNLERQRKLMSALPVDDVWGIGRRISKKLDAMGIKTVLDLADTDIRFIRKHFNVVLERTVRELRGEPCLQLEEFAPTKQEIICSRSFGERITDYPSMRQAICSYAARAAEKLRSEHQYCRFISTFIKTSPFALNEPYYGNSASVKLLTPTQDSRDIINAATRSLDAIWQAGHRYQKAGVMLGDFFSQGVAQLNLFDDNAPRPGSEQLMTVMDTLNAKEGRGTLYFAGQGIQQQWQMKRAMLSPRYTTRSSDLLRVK
T1 sequence (P0AG11 25-139 partner limits assumed): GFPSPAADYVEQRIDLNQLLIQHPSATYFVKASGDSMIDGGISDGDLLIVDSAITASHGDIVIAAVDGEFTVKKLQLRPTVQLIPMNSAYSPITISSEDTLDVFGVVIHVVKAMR

UmuC = target: T2, UmuC (E. coli, UniProt P04152 1-422); test: SEC-MALS
T2 sequence (looked up): T1 sequence (P04152 1-422 partner)

[2] = target: T3, DNA polymerase V (UmuD′2C) (E. coli, UniProt P04152 1-422; P0AG11 25-139)
T3 sequence (looked up) 1: T1 sequence (P04152 1-422 partner)
T3 sequence (looked up) 2: T1 sequence (P0AG11 25-139 partner limits assumed)

## Nc1ncnc2c1ncn2[C@@H]1O[C@H](COP(=O)(O)OP(=O)(O)OP(=O)(O)O)[C@@H](O)[C@H]1O [ATP]
[1]
  hairpin primer/template extension, 32P-labelled DNA: pol V Mut activated with wild-type RecA* is inactive in the absence of added ATP or ATPγS

B1: UmuD′ (natural protein, E. coli, UniProt P0AG11 25-139, looked up)
chain: T1 sequence (P0AG11 25-139 partner limits assumed)
UmuC
  binding result: binds

B2: wild-type RecA (natural protein, E. coli, UniProt P0A7G6 1-353, looked up)
chain: MAIDENKQKALAAALGQIEKQFGKGSIMRLGEDRSMDVETISTGSLSLDIALGAGGLPMGRIVEIYGPESSGKTTLTLQVIAAAQREGKTCAFIDAEHALDPIYARKLGVDIDNLLCSQPDTGEQALEICDALARSGAVDVIVVDSVAALTPKAEIEGEIGDSHMGLAARMMSQAMRKLAGNLKQSNTLLIFINQIRMKIGVMFGNPETTTGGNALKFYASVRLDIRRIGAVKEGENVVGSETRVKVVKNKIAAPFKQAEFQILYGEGINFYGELVDLGVKEKLIEKAGAWYSYKGEKIGQGKANATAWLKDNPETAKEIEKKVRELLLSNPNSTPDFSVDDSEGVAETNEDF
[2]
  stoichiometry N: 1 RecA per UmuC per UmuD′2
